Values quoted from earlier work, collected in PMC6457457.
pKd: −log10 of the molar value.

Biological target: LC8 (Homo sapiens) (UniProt P63167)
Sequence of UniProt P63167 (P63167 whole entry): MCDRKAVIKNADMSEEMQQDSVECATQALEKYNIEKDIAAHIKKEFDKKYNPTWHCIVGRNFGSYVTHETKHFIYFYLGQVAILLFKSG

For VP35 (from UniProt Q6V1Q9), the pKd is given as 7.08.
